# Data as given in paper PMC10696467 (The Journal of Biological Chemistry, 2023).
# B1: speckle-type POZ protein (SPOP) WT, residues 28-359 (domain or fragment)
# chain: KVVKFSYMWTINNFSFCREEMGEVIKSSTFSSGANDKLKWCLRVNPKGLDEESKDYLSLYLLLVSCPKSEVRAKFKFSILNAKGEETKAMESQRAYRFVQGKDWGFKKFIRRDFLLDEANGLLPDDKLTLFCEVSVVQDSVNISGQNTMNMVKVPECRLADELGGLWENSRFTDCCLCVAGQEFQAHKAILAARSPVFSAMFEHEMEESKKNRVEINDVEPEVFKEMMCFIYTGKAPNLDKMADDLLAAADKYALERLKVMCEDALCSNLSVENAAEILILADLHSADQLKTQAVDFINYHASDVLETSGWKSMVVSHPHLVAEAYRSLASA
# B2: SPOP R354H, residues 28-359 (domain or fragment)
# chain: KVVKFSYMWTINNFSFCREEMGEVIKSSTFSSGANDKLKWCLRVNPKGLDEESKDYLSLYLLLVSCPKSEVRAKFKFSILNAKGEETKAMESQRAYRFVQGKDWGFKKFIRRDFLLDEANGLLPDDKLTLFCEVSVVQDSVNISGQNTMNMVKVPECRLADELGGLWENSRFTDCCLCVAGQEFQAHKAILAARSPVFSAMFEHEMEESKKNRVEINDVEPEVFKEMMCFIYTGKAPNLDKMADDLLAAADKYALERLKVMCEDALCSNLSVENAAEILILADLHSADQLKTQAVDFINYHASDVLETSGWKSMVVSHPHLVAEAYHSLASA
# Assays:
# [1] = target: the molecule itself; experiment: composite-gradient multiangle light scattering
# [2] = target: SPOP R221C, residues 28-359 (UniProt O43791 28-359, R221C); experiment: fluorescence polarisation
# [3] = target: B1; experiment: fluorescence polarisation
# [4] = target: B2; experiment: fluorescence polarisation
# [5] = target: SPOP mutBACK (Y353E), residues 28-359 (UniProt O43791 28-359, Y353E); experiment: fluorescence polarisation
Binder,Kd [1] [µM],Kd [2] [µM],Kd [3] [µM],Kd [4] [µM],Kd [5] [µM]
B1,2.7,–,–,–,–
"C-terminal intrinsically disordered region of DAXX (cDAXX), fluorescently labeled (domain or fragment, fluorescently labeled (fluorescently tagged cDAXX construct; the labeling methods give Rhodamine Red, N-terminal labeling, for cDAXX)) SPMSSLQISNEKNLEPGKQISRSSGEQQNKGRIVSPSLLSEEPLAPSSIDAESNGEQPEELTLEEESPVSQLFELEIEALPLDTPSSVETDISSSRKQSEEPFTTVLENGAGMVSSTSFNGGVSPHNWGDSGPPCKKSRKEKKQTGSGPLGNSYVERQRSVHEKNGKKICTLPSPPSPLASLAPVADSSTRVDSPSHGLVTSSLCIPSPARLSQTPHSQPPRPGTCKTSVATQCDPEEIIVLSDSD",–,3.2,1.2,3,–
ENLACDEVTSTTSSSST (HELM PEPTIDE1{[O=C1OC2(c3ccc(O)cc3Oc3cc(O)ccc32)c2ccc(C(=O)[*:2])cc21].E.N.L.A.C.D.E.V.T.S.T.T.S.S.S.S.T.[am]}$$$$V2.0; SMILES CC(C)C[C@H](NC(=O)[C@H](CC(N)=O)NC(=O)[C@H](CCC(=O)O)NC(=O)c1ccc2c(c1)C(=O)OC21c2ccc(O)cc2Oc2cc(O)ccc21)C(=O)N[C@@H](C)C(=O)N[C@@H](CS)C(=O)N[C@@H](CC(=O)O)C(=O)N[C@@H](CCC(=O)O)C(=O)N[C@H](C(=O)N[C@H](C(=O)N[C@@H](CO)C(=O)N[C@H](C(=O)N[C@H](C(=O)N[C@@H](CO)C(=O)N[C@@H](CO)C(=O)N[C@@H](CO)C(=O)N[C@@H](CO)C(=O)N[C@H](C(N)=O)[C@@H](C)O)[C@@H](C)O)[C@@H](C)O)[C@@H](C)O)C(C)C) [fPuc peptide (fluorescently labeled SPOP-binding motif from the substrate Puckered)],–,5.9,9.8,5.1,4.3
B2,26.9,–,–,–,–
